Where no end group is shown, it is not given here.
Assays:
NYAD-67 = experiment: ITC; settings: both partners purified
NYAD-36 = experiment: ITC; settings: both partners purified

CTRPNYNKRKRIHIGPGRAFYTTKNIIGTIRQAHC (also: cyclic (mode not given here)) [full-length cyclic V3 loop peptide]
Kd (NYAD-67): 990 ± 40 nM | Kd (NYAD-36): 350 ± 30 nM
